Results: patent US20080057055A1, “OLD-35 as an inflammatory agent” (priority 2004, published 2008)

Key:
HeLa cells = test: Monitoring ROS production by flow cytometry (HE and DCFH-DA staining); type: cell-based, human; conditions: Ad.hPNPase 50 pfu/cell, plus 20 mM NAC
Method: Cell Lines, Reagents and Virus Infection protocol. The human cervical carcinoma cell line HeLa was cultured in Dulbecco's Modified Eagle Medium (DMEM) supplemented with 10% fetal calf serum, penicillin (50 units/ml) and streptomycin (50 μg/ml) at 37° C. in 5% CO2 and 100% relative humidity. N-acetyl-L-cysteine and Tiron were obtained from Sigma (St. Louis, Mo.). The recombinant replication-incompetent adenovirus expressing old-35 (Ad.hPNPase) was created in two steps as described previously and plaque purified by standard procedures (1, 28). Cells were infected with a multiplicity of infection (m.o.i.) of 1 to 50 plaque forming units (pfu)/cell of Ad.vec (control replication-incompetent adenovirus) or Ad.hPNPase as described (29).
Monitoring ROS Production. Cells were stained with 2.5 μM hydroethidine (HE) and 5 μM 5,6-carboxy-2′,7′-dichlorofluorescein diacetate (DCFH-DA) in PBS for 30 min in the dark (32). Immediately after staining the cells were analyzed by flow cytometry (FACScan; Becton Dickinson, Mountain View, Calif.) and data were analyzed using CellQuest software, version 3.1 (Becton Dickinson). The cells were gated to exclude cell debris.

IκBα, p65 = test: Western blot of cytoplasmic and nuclear extracts; type: cell-based, human; conditions: 20 mM NAC, 2 days post-infection
Method: Cell Fractionation. Cells were harvested and the cytoplasm and nucleus were fractionated by the modified Schreiber's method as described (31). Briefly, the cells were washed with PBS and lysed for 10 min in Buffer A (10 mM HEPES pH 7.9, 10 mM KCl, 1.5 mM MgCl2, 1 mM EDTA, 1 mM dithiothreitol, 0.1% Nonidet P-40) containing protease inhibitor cocktail (Roche, Mannheim, Germany). After centrifugation, the supernatant was saved as the cytoplasmic fraction and the pellet containing nuclei was lysed in Buffer B (20 mM HEPES pH 7.9, 400 mM KCl, 20% glycerol, 1 mM EDTA, 1 mM DTT) containing protease inhibitor cocktail (Roche) with one freeze-thaw cycle. After centrifugation the supernatant was collected as the nuclear fraction. Protein concentration was determined by Bio-Rad protein assay kit (Bio-Rad laboratories, Hercules, Calif.).
Preparation of Whole Cell Lysates and Western Blot Analysis. Whole cell lysates were prepared and Western blotting was performed as described (4). Briefly, cells were harvested in RIPA buffer containing protease inhibitor cocktail (Roche, Mannheim, Germany), 1 mM Na3VO4 and 50 mM NaF and centrifuged at 12,000 rpm for 10 min at 4° C. The supernatant was used as total cell lysate. Thirty μg of total cell lysate were used for SDS-PAGE and transferred to a nitrocellulose membrane. […]

IL-6 = test: Human IL-6 ELISA in culture supernatants; type: cell-based; conditions: HeLa, Ad.hPNPase 50 pfu/cell; plus 20 mM NAC
Excerpt: (§1) Human IL-6 and IL-8 ELISA. The levels of IL-6 and IL-8 were quantified by ELISA in culture supernatants using human IL-6 ELISA kit (Pierce Biotechnology, Rockford, Ill.) and human IL-8 ELISA kit (Pierce), respectively, according to the manufacturer's protocol.

IL-8 = test: Human IL-8 ELISA in culture supernatants; type: cell-based; conditions: HeLa, Ad.hPNPase 50 pfu/cell; plus 20 mM NAC
Excerpt: as §1

NF-κB p65 subunit (RelA) = NF-κB p65 subunit (RelA) (human, UniProt Q04206 1-551); test: complex composition inferred from EMSA supershift
Chain of NF-κB p65 subunit (RelA) (Q04206 whole entry): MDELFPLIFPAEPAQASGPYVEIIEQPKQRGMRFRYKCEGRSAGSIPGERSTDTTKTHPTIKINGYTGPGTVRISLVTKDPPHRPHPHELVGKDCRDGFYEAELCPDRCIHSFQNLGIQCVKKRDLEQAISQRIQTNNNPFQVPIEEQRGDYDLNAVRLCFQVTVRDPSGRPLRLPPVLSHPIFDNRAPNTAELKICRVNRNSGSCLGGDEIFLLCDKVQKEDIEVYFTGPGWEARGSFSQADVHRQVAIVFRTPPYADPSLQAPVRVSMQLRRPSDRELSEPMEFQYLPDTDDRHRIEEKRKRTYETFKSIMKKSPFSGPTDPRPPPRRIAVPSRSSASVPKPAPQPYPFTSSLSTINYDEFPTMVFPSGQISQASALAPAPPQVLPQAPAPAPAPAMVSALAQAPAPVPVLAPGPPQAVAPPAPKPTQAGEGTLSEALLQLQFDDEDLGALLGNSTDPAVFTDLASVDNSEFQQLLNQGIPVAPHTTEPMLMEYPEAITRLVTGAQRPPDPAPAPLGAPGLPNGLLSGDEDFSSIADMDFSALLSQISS

c-myc mRNA = test: In vitro mRNA degradation assay with in vitro translated proteins; type: biochemical, human; conditions: in vitro translated protein incubated with HO-1 total RNA for 0.5 and 2 h
Method: In vitro Translation and in vitro mRNA Degradation Assays: In vitro translation was performed using the TNT coupled Reticulocyte Lysate Systems (Promega) using the plasmids pcDNA3.1+(Hygro) as a control, GADD153 expression plasmid, phPNPase^old-35, pΔRPH1, pΔRPH2, pΔRPH1+2 and pΔC-term according to the manufacturer's protocol. Five […] of total RNA from HO-1 cells were incubated with 5 μl of each in vitro translated protein at 37° C. from 0.5 to 2 h. The RNA was repurified using the Qiagen RNeasy mini kit (Qiagen) and Northern blotting was performed.

[1] = target: the molecule itself; test: self-association inferred from anti-HA Western blot of fractionated HO-1 cells

Molecule	degradation of c-myc mRNA (c-myc mRNA)	binding result [1]	further results
CC(=O)N[C@@H](CS)C(=O)O [NAC, N-acetyl-L-cysteine]			percentage of high ROS containing cells (HeLa cells; 24 hr): ~2%; percentage of high ROS containing cells (HeLa cells; 36 hr): ~3%; degradation of IκBα and nuclear translocation of p65 by Ad.hPNPase^old-35 infection (IκBα, p65): inhibited; secreted IL-6 in culture supernatant (IL-6): markedly inhibited; secreted IL-8 in culture supernatant (IL-8): markedly inhibited
NF-κB p50 subunit (other, human, UniProt P19838 1-433, looked up, also called NF-κB1 (p50/p105)) MAEDDPYLGRPEQMFHLDPSLTHTIFNPEVFQPQMALPTDGPYLQILEQPKQRGFRFRYVCEGPSHGGLPGASSEKNKKSYPQVKICNYVGPAKVIVQLVTNGKNIHLHAHSLVGKHCEDGICTVTAGPKDMVVGFANLGILHVTKKKVFETLEARMTEACIRGYNPGLLVHPDLAYLQAEGGGDRQLGDREKELIRQAALQQTKEMDLSVVRLMFTAFLPDSTGSFTRRLEPVVSDAIYDSKAPNASNLKIVRMDRTAGCVTGGEEIYLLCDKVQKDDIQIRFYEEEENGGVWEGFGDFSPTDVHRQFAIVFKTPKYKDINITKPASVFVQLRRKSDLETSEPKPFLYYPEIKDKEEVQRKRQKLMPNFSDSFGGGSGAGAGGGGMFGSGGGGGGTGSTGPGYSFPHYGFPTYGGITFHPGTTKSNAGMKHG			binding result (NF-κB p65 subunit (RelA)): binds
pΔRPH1+2: plasmid for ΔRPH1+2 deletion mutant, in vitro translated protein of 31 kDa (protein) MDSGVPISSAVAGVAIGLVTKTDPEKGEIEDYRLLTDILGIEDYNGDMDFKIAGTNKGITALQADIKLPGIPIKIVMEAIQQASVAKKEILQIMNKTISKPRASRKENGPVVETVQVPLSKRAKFVGPGGYNLKKLQAETGVTISQVDEETFSVFAPTPSVMHEARDFITEICKDDQEQQLEFGAVYTATITEIRDTGVMVKLYPNMTAVLLHNTQLDQRKIKHPTALGLEVGQEIQVKYFGRDPADGRMRLSRKVLQSPATTVVRTLNDRSSIVMGEPISQSSSNSQYPYDVPDYA	No degradation		
ΔRPH1 deletion mutant of hPNPase^OLD-35 (a.a. 183-783) with C-terminal HA tag (enzyme, also called Ad.ΔRPH1; pΔRPH1) PWNGPVGAVRIGIIDGEYVVNPTRKEMSSSTLNLVVAGAPKSQIVMLEASAENILQQDFCHAIKVGVKYTQQIIQGIQQLVKETGVTKRTPQKLFTPSPEIVKYTHKLAMERLYAVFTDYEHDKVSRDEAVNKIRLDTEEQLKEKFPEADPYEIIESFNVVAKEVFRSIVLNEYKRCDGRDLTSLRNVSCEVDMFKTLHGSALFQRGQTQVLCTVTFDSLESGIKSDQVITAINGIKDKNFMLHYEFPPYATNEIGKVTGLNRRELGHGALAEKALYPVIPRDFPFTIRVTSEVLESNGSSSMASACGGSLALMDSGVPISSAVAGVAIGLVTKTDPEKGEIEDYRLLTDILGIEDYNGDMDFKIAGTNKGITALQADIKLPGIPIKIVMEAIQQASVAKKEILQIMNKTISKPRASRKENGPVVETVQVPLSKRAKFVGPGGYNLKKLQAETGVTISQVDEETFSVFAPTPSVMHEARDFITEICKDDQEQQLEFGAVYTATITEIRDTGVMVKLYPNMTAVLLHNTQLDQRKIKHPTALGLEVGQEIQVKYFGRDPADGRMRLSRKVLQSPATTVVRTLNDRSSIVMGEPISQSSSNSQYPYDVPDYA	significant degradation	no binding	
ΔRPH2 deletion mutant of hPNPase^OLD-35 (a.a. 1-202 and 496-783) with C-terminal HA tag (enzyme, The two fragments were joined at an HpaI site; also called Ad.ΔRPH2; pΔRPH2) MAACRYCCSCLRLRPLSDGPFLLPRRDRALTQLQVRALWSSAGSRAVAVDLGNRKLEISSGKLARFADGSAVVQSGDTAVMVTAVSKTKPSPSQFMPLVVDYRQKAAAAGRIPTNYLRREVGTSDKEILTSRIIDRSIRPLFPAGYFYDTQVLCNLLAVDGVNEPDVLAINGASVALSLSDIPWNGPVGAVRIGIIDGEYVVMDSGVPISSAVAGVAIGLVTKTDPEKGEIEDYRLLTDILGIEDYNGDMDFKIAGTNKGITALQADIKLPGIPIKIVMEAIQQASVAKKEILQIMNKTISKPRASRKENGPVVETVQVPLSKRAKFVGPGGYNLKKLQAETGVTISQVDEETFSVFAPTPSVMHEARDFITEICKDDQEQQLEFGAVYTATITEIRDTGVMVKLYPNMTAVLLHNTQLDQRKIKHPTALGLEVGQEIQVKYFGRDPADGRMRLSRKVLQSPATTVVRTLNDRSSIVMGEPISQSSSNSQYPYDVPDYA	significant degradation	no binding	
phPNPase^old-35: plasmid expressing full-length HA-tagged hPNPase^OLD-35 protein, in vitro translated for RNA degradation assays (protein, UniProt Q8TCS8 1-783, looked up, full-length HA tag, plasmid expressing full-length HA-tagged hPNPase^OLD-35 protein, in vitro translated for RNA degradation assays) MAACRYCCSCLRLRPLSDGPFLLPRRDRALTQLQVRALWSSAGSRAVAVDLGNRKLEISSGKLARFADGSAVVQSGDTAVMVTAVSKTKPSPSQFMPLVVDYRQKAAAAGRIPTNYLRREIGTSDKEILTSRIIDRSIRPLFPAGYFYDTQVLCNLLAVDGVNEPDVLAINGASVALSLSDIPWNGPVGAVRIGIIDGEYVVNPTRKEMSSSTLNLVVAGAPKSQIVMLEASAENILQQDFCHAIKVGVKYTQQIIQGIQQLVKETGVTKRTPQKLFTPSPEIVKYTHKLAMERLYAVFTDYEHDKVSRDEAVNKIRLDTEEQLKEKFPEADPYEIIESFNVVAKEVFRSIVLNEYKRCDGRDLTSLRNVSCEVDMFKTLHGSALFQRGQTQVLCTVTFDSLESGIKSDQVITAINGIKDKNFMLHYEFPPYATNEIGKVTGLNRRELGHGALAEKALYPVIPRDFPFTIRVTSEVLESNGSSSMASACGGSLALMDSGVPISSAVAGVAIGLVTKTDPEKGEIEDYRLLTDILGIEDYNGDMDFKIAGTNKGITALQADIKLPGIPIKIVMEAIQQASVAKKEILQIMNKTISKPRASRKENGPVVETVQVPLSKRAKFVGPGGYNLKKLQAETGVTISQVDEETFSVFAPTPSAMHEARDFITEICKDDQEQQLEFGAVYTATITEIRDTGVMVKLYPNMTAVLLHNTQLDQRKIKHPTALGLEVGQEIQVKYFGRDPADGRMRLSRKVLQSPATTVVRTLNDRSSIVMGEPISQSSSNSQ	significant degradation		
pGADD153: unrelated plasmid that expresses a transcription factor (protein, UniProt P35638 1-169, looked up, expressed from plasmid, unrelated plasmid that expresses a transcription factor) DNA damage-inducible …: MAAESLPFSFGTLSSWELEAWYEDLQEVLSSDENGGTYVSPPGNEEEESKIFTTLDPASLAWLTEEEPEPAEVTSTSQSPHSPDSSQSSLAQEEEEEDQGRTRKRKQSGHSPARAGKQRMKEKEQENERKVAQLAEENERLKQEIERLTREVEATRRALIDRMVNLHQA	No degradation		
ΔC-term deletion mutant of hPNPase^OLD-35 (a.a. 1-507) with C-terminal HA tag (enzyme, also called Ad.ΔC-term; pΔC-term) MAACRYCCSCLRLRPLSDGPFLLPRRDRALTQLQVRALWSSAGSRAVAVDLGNRKLEISSGKLARFADGSAVVQSGDTAVMVTAVSKTKPSPSQFMPLVVDYRQKAAAAGRIPTNYLRREVGTSDKEILTSRIIDRSIRPLFPAGYFYDTQVLCNLLAVDGVNEPDVLAINGASVALSLSDIPWNGPVGAVRIGIIDGEYVVNPTRKEMSSSTLNLVVAGAPKSQIVMLEASAENILQQDFCHAIKVGVKYTQQIIQGIQQLVKETGVTKRTPQKLFTPSPEIVKYTHKLAMERLYAVFTDYEHDKVSRDEAVNKIRLDTEEQLKEKFPEADPYEIIESFNVVAKEVFRSIVLNEYKRCDGRDLTSLRNVSCEVDMFKTLHGSALFQRGQTQVLCTVTFDSLESGIKSDQVITAINGIKDKNFMLHYEFPPYATNEIGKVTGLNRRELGHGALAEKALYPVIPRDFPFTIRVTSEVLESNGSSSMASACGGSLALMDSGVPISSAVAYPYDVPDYA	significant degradation	no binding	
